The values below come from patent US20250179152A1 (TEXAS A AND M UNIVERSITY SYSTEM, published 2025).

The test has as its target RBD protein of SARS-COV-1 (SARS-CoV-1, UniProt P59594 306-527). Kind of test: ELISA ('the same binding assay').

B1: FSR16m (designed binder)
chain: MGMEQKLISEEDLDGYIPEAPRDGQAYVRKDGEWVLLSTFLGGGGSLQGGGGSLQGSDLGKKLLEAARAGQDDEVRILMANGADVNALDLFGVTPLHLAAERGHLEIVEVLLKNGADVNAGDAFGRTPLHLAALGGHLEIVEVLLKNGADVNACDLYGVTPLHLAAGLGHLEIVEVLLKNGADVNAQDKFGKTAFDISIDNGNEDLAEILQSSSKLAAALEHHHHHH
B1: the binding result is “no binding”.
